B1: FapB from the P. aeruginosa PAO1 strain with an N-terminal histidine tag (natural protein)
chain: DPLASRNRASIDDSGTYRGNFALNQAAGDAQQQSNVRVVAVGSAALVGSDQRQHLQLDASQPIAASASISGAALRGSGILGVNQGAGLGNQQINAFRLSLSNGPESLDDSVLAQSVALTKVSGSATPVPGGRSVSTDDRAFAGSSGVVQVNQSAGVGNQSMNTLSVRVME
notes: FapB, Pseudomonas aeruginosa PAO1, UniProt Q9I2E9; Used as fresh monomers, as fibrils and as sonicated fibril seeds; also called FapB-NterHis; histidine-tagged FapB; source: E. coli BL-21, purified (HisPur cobalt resin, lysis in 6 M guanidinium HCl)
B2: FapC (C-terminal histidine tag) labeled with Cyanine5 (natural protein)
chain: MGNEGGWHPPKPNPQSNNKGGATALVVDTQQNYNNKVSNFGTLNNASVSGSIKDASGNVGVNVAAGDNNQQANAAALASADASFVFGTATASTSVLQSGYGNTLNNYSNPNTASLSNSANNVSGNLGVNVAAGNFNQQKNDLAAAVSNGQYSTAGSAASQTSTGNTTVNSANYAYGGTYVSLKLNADGSYKGTSDQIGDVYLDTWEGQTHPGGSNTGHIDVDSQAQGAKDLNHDGGAFAFKEKGDVDLKGTVSGFIPAIVGFKTPVTNNASLSNSLQNVSGNVGVNIAAGGGNQQSNSLSIAAGCSSCPAGGESLGF
modifications: Cyanine5 attached by NHS ester to lysine residues (primary amines)
notes: FapC, Pseudomonas aeruginosa PAO1, UniProt Q9I2F0, without its signal peptide; same chain as m2; also called FapC labeled with Cyanine5; labeled FapC; source: E. coli BL-21, labeled on HisPur cobalt resin with Cyanine5 NHS ester, eluted and desalted

Columns and labels:
[1] = target: the molecule itself; assay: thioflavin T fibrillation kinetics + transmission electron microscopy; each protein alone, 25, 50 or 100 uM, universal buffer (Tris, Bis-Tris, sodium acetate) pH 4-9, 20 uM ThT, 37 °C, orbital shaking 300 rpm; fibrils seen by TEM after 80 h; self-assembly into amyloid fibrils
[2] = target: B2; assay: fluorescence microscopy of labeled purified proteins (colocalisation of monomers with preformed fibrils); Cyanine3-FapB and Cyanine5-FapC; monomers (0 h incubation) mixed with preformed fibrils (72 h incubation) of the other protein; imaged immediately after mixing and after 24 h; Leica DMI8, 20x; settings: both partners purified
[3] = target: the molecule itself; assay: transmission electron microscopy of fibrils; fluorophore-labeled FapB and FapC, negative staining with 1% uranyl acetate
[4] = target: B1; assay: cell-based or functional assay
[5] = target: the molecule itself; assay: fibril formation, pelleting and formic acid dissolution with SDS-PAGE; 30 uM protein, 37 °C, 48 h, incubated individually; fibrils washed by centrifugation at 13,000g, sonicated and treated with formic acid

Row | Binder | binding result [1] | binding result [3] | other results
1 | FapC from the P. aeruginosa PAO1 strain with an N-terminal histidine tag (natural protein, FapC, Pseudomonas aeruginosa PAO1, UniProt Q9I2F0; cloned into pET28b with the histidine tag at the N-terminal site; This construct probably holds the same stretch without the signal peptide; also called FapC with histidine tag at the N-terminus; source: E. coli BL-21, purified (HisPur cobalt resin, lysis in 6 M guanidinium HCl); not shown: His tag, N-terminal, kept) GNEGGWHPPKPNPQSNNKGGATALVVDTQQNYNNKVSNFGTLNNASVSGSIKDASGNVGVNVAAGDNNQQANAAALASADASFVFGTATASTSVLQSGYGNTLNNYSNPNTASLSNSANNVSGNLGVNVAAGNFNQQKNDLAAAVSNGQYSTAGSAASQTSTGNTTVNSANYAYGGTYVSLKLNADGSYKGTSDQIGDVYLDTWEGQTHPGGSNTGHIDVDSQAQGAKDLNHDGGAFAFKEKGDVDLKGTVSGFIPAIVGFKTPVTNNASLSNSLQNVSGNVGVNIAAGGGNQQSNSLSIAAGCSSCPAGGESLGF | binds | – | –
2 | B1 | binds | – | –
3 | FapB (N-terminal histidine tag) labeled with Cyanine3 (natural protein, Cyanine3 attached by NHS ester to lysine residues (primary amines), FapB, Pseudomonas aeruginosa PAO1, UniProt Q9I2E9, 170 residues without the signal peptide; same chain as m1; also called FapB labeled with Cyanine3; labeled FapB; source: E. coli BL-21, labeled on HisPur cobalt resin with Cyanine3 NHS ester, eluted and desalted) DPLASRNRASIDDSGTYRGNFALNQAAGDAQQQSNVRVVAVGSAALVGSDQRQHLQLDASQPIAASASISGAALRGSGILGVNQGAGLGNQQINAFRLSLSNGPESLDDSVLAQSVALTKVSGSATPVPGGRSVSTDDRAFAGSSGVVQVNQSAGVGNQSMNTLSVRVME | – | binds | binding result [2]: binds
4 | FapC from the P. aeruginosa PAO1 strain with a C-terminal histidine tag (natural protein, Used as fresh monomers, as fibrils and as sonicated fibril seeds; also called FapC-CterHis; histidine-tagged FapC; source: E. coli BL-21, purified (HisPur cobalt resin, lysis in 6 M guanidinium HCl)) MGNEGGWHPPKPNPQSNNKGGATALVVDTQQNYNNKVSNFGTLNNASVSGSIKDASGNVGVNVAAGDNNQQANAAALASADASFVFGTATASTSVLQSGYGNTLNNYSNPNTASLSNSANNVSGNLGVNVAAGNFNQQKNDLAAAVSNGQYSTAGSAASQTSTGNTTVNSANYAYGGTYVSLKLNADGSYKGTSDQIGDVYLDTWEGQTHPGGSNTGHIDVDSQAQGAKDLNHDGGAFAFKEKGDVDLKGTVSGFIPAIVGFKTPVTNNASLSNSLQNVSGNVGVNIAAGGGNQQSNSLSIAAGCSSCPAGGESLGF | binds | – | residual FapB monomer on SDS-PAGE after 9 days of coincubation 1:1 with FapC at pH 5, without formic acid, relative to untreated monomers (9% for FapB alone) [4]: 52%
5 | B2 | – | binds | –
6 | histidine-tagged CsgB of E. coli (natural protein, E. coli K12, UniProt P0ABK7 22-151, looked up, CsgB (curli minor subunit), E. coli K12, UniProt P0ABK7; Expressed from a pET11a plasmid; the construct is not described further; source: E. coli BL21-DE3 slyD KO, purified (nickel-nitrilotriacetic acid beads, from 7.5 M guanidine hydrochloride)) AGYDLANSEYNFAVNELSKSSFNQAAIIGQAGTNNSAQLRQGGSKLLAVVAQEGSSNRAKIDQTGDYNLAYIDQAGSANDASISQGAYGNTAMIIQKGSGNKANITQYGTQKTAIVVQRQSQMAIRVTQR | – | – | binding result [5]: binds
